The results in this text go back to the supplement of paper PMC10567573.

B1: DVL3 (parent)
chain: SDVVDWLYHNVEGFTDRREARKYA
B2: C10orf62 (parent)
chain: TSECPSDKDKSPESHKAKNESWIK
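Note: lentivirally expressed fusions sorted by FACS into six bins by GFP to DsRed ratio, PSI derived from sequencing read proportions per bin multiplied by bin number.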

In one series the parent is B1. Description: protein stability index of a GFP-peptide fusion (GPS, HEK-293T) (PSI 1-6); higher = more stable. To be noted: c terminus: a fixed tail appended.
With SDVVDWLYHNVEGFTDRRKARKYA, the protein stability index was 2.33. The same measure, in the same setting: the result for SDVVDWLYHNVEGFTDRRFARKYA reads 2.34.

In the case of SDVVDWLYHNVEGFTDRRHARKYA, the protein stability index came to 2.58. Still for that read-out and setting: under SDVVDWLYHNVEGFTDRRIARKYA stands 2.25. The same measure, in the same setting: under SDVVDWLYHNVEGFTDRRDARKYA stands 3.18; under SDVVDWLYHNVEGFTDRRMARKYA, 2.67; under SDVVDWLYHNVEGFTDRRYARKYA, 1.73. Same read-out and setting: the result for SDVVDWLYHNVEGFTDRRSARKYA reads 2.73.

In the case of SDVVDWLYHNVEGFTDRNEARKYA, the protein stability index came out at 3.55. Same read-out and setting: the result for SDVVDWLYHNVEGFTDRLEARKYA reads 2.04; that for SDVVDWLYHNVEGFTDREEARKYA, 3.84. Still for that read-out and setting: the result for SDVVDWLYHNVEGFTDRFEARKYA reads 2.35. The same measure, in the same setting: the result for SDVVDWLYHNVEGFTDRDEARKYA reads 3.99; that for SDVVDWLYHNVEGFTDRCEARKYA, 2.52. As to SDVVDWLYHNVEGFTDRVEARKYA, the protein stability index came out at 3.53. With SDVVDWLYHNVEGFTDRKEARKYA, the protein stability index is 2.97. Still for that read-out and setting: under SDVVDWLYHNVEGFTDRHEARKYA stands 3.41; under SDVVDWLYHNVEGFTDRAEARKYA, 3.19. On the same count and under the same terms, under SDVVDWLYHNVEGFTDRIEARKYA stands 2.42. SDVVDWLYHNVEGFTDRMEARKYA: the protein stability index is 2.4. SDVVDWLYHNVEGFTDRYEARKYA: the protein stability index worked out at 2.19. Regarding SDVVDWLYHNVEGFTDRWEARKYA, the protein stability index worked out at 1.55.

For the variant SDVVDWLYHNVEGFTDRTEARKYA, the protein stability index came to 3.59. Same read-out and setting: under SDVVDWLYHNVEGFTDRGEARKYA stands 2.38. The same measure, in the same setting: the result for SDVVDWLYHNVEGFTDRPEARKYA reads 3.03.

In the case of SDVVDWLYHNVEGFTDRSEARKYA, the protein stability index stood at 3.43. Turning to SDVVDWLYHNVEGFTDRQEARKYA, the protein stability index came to 2.94.

SDVVDWLYHNVEGFTDRREAVKYA: the protein stability index is 2.78. Still for that read-out and setting: the result for SDVVDWLYHNVEGFTDRREAFKYA reads 2.65. Turning to SDVVDWLYHNVEGFTDRREAIKYA, the protein stability index was determined as 2.33. Same read-out and setting: under SDVVDWLYHNVEGFTDRREAQKYA stands 3.35. Same read-out and setting: under SDVVDWLYHNVEGFTDRREAAKYA stands 2.48; under SDVVDWLYHNVEGFTDRREAYKYA, 2.34. Turning to SDVVDWLYHNVEGFTDRREAKKYA, the protein stability index is 3.24. The same measure, in the same setting: under SDVVDWLYHNVEGFTDRREALKYA stands 3.1; under SDVVDWLYHNVEGFTDRREANKYA, 3.21; under SDVVDWLYHNVEGFTDRREADKYA, 3.52.

With SDVVDWLYHNVEGFTDRREAPKYA, the protein stability index turned out to be 2.66. As for SDVVDWLYHNVEGFTDRREATKYA, the protein stability index worked out at 3.88. Same read-out and setting: under SDVVDWLYHNVEGFTDRREAMKYA stands 2.35; under SDVVDWLYHNVEGFTDRREASKYA, 2.84; under SDVVDWLYHNVEGFTDRREAEKYA, 3.57. For SDVVDWLYHNVEGFTDRREAHKYA, the protein stability index is 3.02. Same read-out and setting: under SDVVDWLYHNVEGFTDRREACKYA stands 2.31; under SDVVDWLYHNVEGFTDRREAWKYA, 1.67.

Another series covers variants of B2. The series is described as above. To be noted: c terminus: a fixed tail appended.
For the variant TGECPSDKDKSPESHKAKNESWIK, the protein stability index turned out to be 3.26. In the case of TNECPSDKDKSPESHKAKNESWIK, the protein stability index was determined as 3.74.

For the variant TKECPSDKDKSPESHKAKNESWIK, the protein stability index came out at 3.13. Same read-out and setting: under TCECPSDKDKSPESHKAKNESWIK stands 3.96; under TRECPSDKDKSPESHKAKNESWIK, 4.43. Still for that read-out and setting: the result for TQECPSDKDKSPESHKAKNESWIK reads 3.85. The same measure, in the same setting: the result for TMECPSDKDKSPESHKAKNESWIK reads 3.17.

Consider TLECPSDKDKSPESHKAKNESWIK, for which the protein stability index worked out at 3.24. Still for that read-out and setting: the result for TIECPSDKDKSPESHKAKNESWIK reads 3.25; that for TTECPSDKDKSPESHKAKNESWIK, 3.03; that for TDECPSDKDKSPESHKAKNESWIK, 3.7. Still for that read-out and setting: under TEECPSDKDKSPESHKAKNESWIK stands 3.98; under TWECPSDKDKSPESHKAKNESWIK, 3.64; under TPECPSDKDKSPESHKAKNESWIK, 3.17. For the variant TFECPSDKDKSPESHKAKNESWIK, the protein stability index came to 3.12. TYECPSDKDKSPESHKAKNESWIK: the protein stability index came out at 3.47. Turning to TAECPSDKDKSPESHKAKNESWIK, the protein stability index was found to be 2.63. Same read-out and setting: the result for THECPSDKDKSPESHKAKNESWIK reads 3.47; that for FSECPSDKDKSPESHKAKNESWIK, 3.08. Still for that read-out and setting: the result for ISECPSDKDKSPESHKAKNESWIK reads 3.04; that for ESECPSDKDKSPESHKAKNESWIK, 3.09; that for WSECPSDKDKSPESHKAKNESWIK, 2.28. As to QSECPSDKDKSPESHKAKNESWIK, the protein stability index was found to be 3.27. The same measure, in the same setting: the result for MSECPSDKDKSPESHKAKNESWIK reads 3.23; that for VSECPSDKDKSPESHKAKNESWIK, 2.3; that for NSECPSDKDKSPESHKAKNESWIK, 3.38.

For YSECPSDKDKSPESHKAKNESWIK, the protein stability index stood at 3.14.

Regarding ASECPSDKDKSPESHKAKNESWIK, the protein stability index was 2.87.

With HSECPSDKDKSPESHKAKNESWIK, the protein stability index turned out to be 3.57. On the same count and under the same terms, the result for DSECPSDKDKSPESHKAKNESWIK reads 3.6; that for LSECPSDKDKSPESHKAKNESWIK, 4.35. On the same count and under the same terms, the result for KSECPSDKDKSPESHKAKNESWIK reads 3.31; that for RSECPSDKDKSPESHKAKNESWIK, 4.3; that for CSECPSDKDKSPESHKAKNESWIK, 2.88. On the same count and under the same terms, the result for TSICPSDKDKSPESHKAKNESWIK reads 2.14.

As to TSACPSDKDKSPESHKAKNESWIK, the protein stability index was 2.94. On to TSNCPSDKDKSPESHKAKNESWIK, for which the protein stability index worked out at 3.36. With TSRCPSDKDKSPESHKAKNESWIK, the protein stability index was determined as 3.21. TSGCPSDKDKSPESHKAKNESWIK: the protein stability index was 3.73.

For TSTCPSDKDKSPESHKAKNESWIK, the protein stability index turned out to be 3.27. With TSCCPSDKDKSPESHKAKNESWIK, the protein stability index turned out to be 3.01. With TSMCPSDKDKSPESHKAKNESWIK, the protein stability index was 2.88. In the case of TSQCPSDKDKSPESHKAKNESWIK, the protein stability index was found to be 2.94. In the case of TSSCPSDKDKSPESHKAKNESWIK, the protein stability index is 3.34.

Regarding TSHCPSDKDKSPESHKAKNESWIK, the protein stability index is 2.84.

As to TSKCPSDKDKSPESHKAKNESWIK, the protein stability index is 2.92. On the same count and under the same terms, under TSLCPSDKDKSPESHKAKNESWIK stands 3.5; under TSDCPSDKDKSPESHKAKNESWIK, 2.73. For TSPCPSDKDKSPESHKAKNESWIK, the protein stability index is 4.09.
